Assay results taken from patent US7378388B2, “Method of utilizing neurotrophins to manipulate reproductive capacity” (University of Medicine and Dentistry of New Jersey, priority 2001, dated 2008).

Key:
cumulus cells = assay: BDNF production and secretion by cultured cumulus cells (BDNF ELISA of culture medium); type: cell-based, human; details: 10 μM forskolin, cumulus cells cultured 24 h, P=0.016
Source text: Cumulus cells, which are a mass of epithelial cells surrounding the ovum in the ovarian follicle, were removed from oocytes in preparation for IVF and were dissociated in hyaluronidase (100 IU/ml, Sigma Chemical Company, St. Louis, Mo.) then washed twice with HBSS. The resulting preparation of cumulus cells was of ninety-nine percent (99%) pure.
For the purpose of examining the regulation of BDNF expression by cAMP, cumulus cells were combined between two subjects for each experiment. […] The culture media was collected after 24 hours of culture for assay of BDNF.
BDNF levels were determined using commercially available BDNF E max® immumoassay system (Promega, Madison, Wis.). The ELISA's were performed according to the manufacture's protocol. Follicular fluid, granulosa cell culture media, oocyte or embryo culture media was added to a 96-well immunoplate pre-coated with human BDNF specific monoclonal antibody. The plate was incubated at room temperature for 2 hours with shaking. Anti-BDNF monoclonal antibody was used as the capture Ab and Anti-BDNF pAb was used as reporter Ab. After washing, the amount of specifically bound pAb was detected using a species-specific anti-IgY antibody conjugated to horseradish peroxidase (HRP) as a tertiary reactant. […] Absorbency was measured at 450 nm using a microplate reader (Model Vmax kinetic microplate reader; Molecular Devices). […]

mouse oocytes [1] = assay: Effect of NT-4/5 and NT-3 on in vitro maturation of mouse oocytes; type: cell-based
Procedure: Eighteen 4-5 week old female C57BL/6 mice (Taconic Labs, German Town, N.Y.) were given a single intraperitoneal injection of 7.5 IU PMSG (Sigma, St. Louis, Mo.). Five hundred thirty-six (536) immature oocytes were harvested 48 hours after gonadotropin injection. Cumulus cells were removed mechanically (27 gauge insulin needles) at room temperature. Immature oocytes were equally divided into control (n=218) and experimental (n=318) groups and cultured in 5% CO2 in air, 37° C. in Human Tubal Fluid (HTF, Conception Technologies, San Diego, Calif.) for 24 and 48 hours with 1 ng/ml (n=59), 10 ng/ml (n=98) and 100 ng/mI (n=11) of 10 NT-4/5 (Peprotech, Inc. Rocky Hill, N.J.) or 10 ng/ml (n=60) and 100 ng/ml (n=60) of NT-3 (Peprotech, Inc. Rocky Hill, N.J.) to examine the percentage of germinal vesicle breakdown. The percentage of polar body extrusion was also examined. Control oocytes (n=218) were cultured in HTF under the same conditions without addition of NT-4/5 (n=158) or NT-3 (n=60).

mouse oocytes [2] = assay: Effect of BDNF upon in vitro maturation of mouse oocytes; type: cell-based; details: 100 ng/ml BDNF
Procedure: Six (6) 4-5 week old female C57BL/6 mice (Taconic Labs, German Town, N.Y.) were given a single intraperitoneal injection of 7.5 IV PMSG (Sigma, St. Louis, Mo.). One hundred sixty (160) immature oocytes were harvested 48 hours after gonadotropin injection. Cumulus cells were removed mechanically (27 gauge insulin needles) at room temperature. Oocytes were equally divided into control and experimental groups. Immature oocytes (n-80) were incubated (5% CO2 in air, 37° C.) in Human Tubal Fluid (HTF, Conception Technologies, San Diego, Calif.) with 100 ng/ml BDNF (Peprotech, Inc. Rocky Hill, N.J.) Control oocytes (n=80) were cultured in HTF under the same conditions without addition of BDNF. […] (See FIG. 3).

[3] = 24 and 48 hours in culture, compared to controls

With `C=C[C@@]1(C)CC(=O)[C@]2(O)[C@@]3(C)[C@@H](O)CCC(C)(C)[C@@H]3[C@H](O)[C@H](OC(C)=O)[C@@]2(C)O1` [Forskolin] as the molecule, how does the “increase of BDNF production” value (cumulus cells) read?
The value was 11 fold.

B1: neurotrophin-4/5 (protein, UniProt P34130 81-210, looked up)
Neurotrophin-4: GVSETAPASRRGELAVCDAVSGWVTDRRTAVDLRGREVEVLGEVPAAGGSPLRQYFFETRCKADNAEEGGPGAGGGGCRGVDRRHWVSECKAKQSYVRALTADAQGRVGWRWIRIDTACVCTLLSRTGRA
notes: neurotrophin, Trk B ligand (Peprotech)
For B1, which “mouse oocyte polar body extrusion” value (mouse oocytes [1]; 1.0 ng/ml, 48 hours, p<0.05) is on record?
The value was “significantly influenced”.

And the “mouse oocyte polar body extrusion” value (mouse oocytes [1]; 10 ng/ml, 24 hours, <0.01)?
Its value is “significantly influenced”.

And the “mouse oocyte polar body extrusion” value (mouse oocytes [1]; 10 ng/ml, 48 hours, p<0.01)?
The value was “significantly influenced”.

What about the germinal vesicle breakdown (mouse oocytes [1]; [3]) of the same molecule?
The germinal vesicle breakdown was “did not influence”.

And the “mouse oocyte polar body extrusion” value (mouse oocytes [1]; [3])?
Its value is “significantly promoted”.

B2: neurotrophin-3 (protein, UniProt P20783 139-257, looked up)
Neurotrophin-3: YAEHKSHRGEYSVCDSESLWVTDKSSAIDIRGHQVTVLGEIKTGNSPVKQYFYETRCKEARPVKNGCRGIDDKHWNSQCKTSQTYVRALTSENNKLVGWRWIRIDTSCVCALSRKIGRT
notes: neurotrophin, Trk C ligand (Peprotech)
B2 was tested. Which germinal vesicle breakdown (mouse oocytes [1]; [3]) did it give?
The germinal vesicle breakdown was “did not alter”.

And the “mouse oocyte polar body extrusion” value (mouse oocytes [1]; [3])?
The value was “did not alter”.

B3: brain-derived neurotrophic factor (protein, UniProt P23560 19-247, looked up)
Neurotrophic factor BDNF …: APMKEANIRGQGGLAYPGVRTHGTLESVNGPKAGSRGLTSLADTFEHVIEELLDEDQKVRPNEENNKDADLYTSRVMLSSQVPLEPPLLFLLEEYKNYLDAANMSMRVRRHSDPARRGELSVCDSISEWVTAADKKTAVDMSGGTVTVLEKVPVSKGQLKQYFYETKCNPMGYTKEGCRGIDKRHWNSQCRTTQSYVRALTMDSKKRIGWRFIRIDTSCVCTLTIKRGR
notes: neurotrophin, soluble polypeptide growth factor, Trk B ligand (Peprotech)
Which “1st polar body extrusion” value (mouse oocytes [2]; 20 hours, control 6.3%, p=0.017) does the source give for B3 here?
Its value is 18.8%.

What about the “1st polar body extrusion” value (mouse oocytes [2]; 24 hours, control 6.3%, p=0.01) of the same molecule?
The value was 20%.

And the “1st polar body extrusion” value (mouse oocytes [2]; 48 hours, control 7.5%, p=0.013)?
Its value is 21.3%.
